Bridges are numbered along the chain shown (N, C = ends). Where no end group is shown, it is not given here.
Target: T1, NPR-B receptor (UniProt P20594 23-1047, limits assumed)
T1 sequence (looked up): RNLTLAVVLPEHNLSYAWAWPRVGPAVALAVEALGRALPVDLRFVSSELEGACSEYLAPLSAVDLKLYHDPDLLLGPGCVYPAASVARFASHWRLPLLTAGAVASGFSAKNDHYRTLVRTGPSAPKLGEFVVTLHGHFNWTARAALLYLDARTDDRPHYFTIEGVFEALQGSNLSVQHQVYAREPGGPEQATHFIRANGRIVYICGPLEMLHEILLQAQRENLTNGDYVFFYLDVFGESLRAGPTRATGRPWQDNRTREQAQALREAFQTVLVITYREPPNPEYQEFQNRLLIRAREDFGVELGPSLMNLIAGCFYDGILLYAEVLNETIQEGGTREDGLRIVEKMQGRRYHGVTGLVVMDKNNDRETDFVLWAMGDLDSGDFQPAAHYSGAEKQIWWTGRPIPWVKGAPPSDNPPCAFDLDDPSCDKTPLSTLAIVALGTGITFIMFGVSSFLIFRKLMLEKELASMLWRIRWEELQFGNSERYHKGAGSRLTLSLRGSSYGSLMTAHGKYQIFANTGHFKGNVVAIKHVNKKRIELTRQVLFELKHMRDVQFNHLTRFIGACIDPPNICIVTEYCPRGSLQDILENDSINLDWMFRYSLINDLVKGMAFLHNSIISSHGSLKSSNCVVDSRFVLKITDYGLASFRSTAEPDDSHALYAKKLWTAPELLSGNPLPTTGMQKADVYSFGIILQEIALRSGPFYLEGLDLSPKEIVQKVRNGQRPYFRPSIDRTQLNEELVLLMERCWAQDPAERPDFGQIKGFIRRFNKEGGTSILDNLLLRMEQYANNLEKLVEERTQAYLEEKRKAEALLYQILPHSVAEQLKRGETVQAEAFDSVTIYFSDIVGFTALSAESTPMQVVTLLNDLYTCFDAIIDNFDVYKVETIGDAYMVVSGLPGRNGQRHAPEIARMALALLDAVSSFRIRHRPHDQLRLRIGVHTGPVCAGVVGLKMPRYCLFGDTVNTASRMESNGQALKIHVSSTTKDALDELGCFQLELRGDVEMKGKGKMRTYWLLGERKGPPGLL
Test: cell-based or functional assay

LQEHPNARKYKGANKKGLSKGCFGLKLDRIGSMSGLGC (disulfide 22-38) [CNP-38]
Biopotency (%), F13, T0; cGMP stimulation in NPR-B overexpressing Hek293 cells, relative to CNP-38 reference standard: 93%
Biopotency (%), F13, T3M, 5° C.; cGMP stimulation in NPR-B overexpressing Hek293 cells, relative to CNP-38 reference standard: 107%
Biopotency (%), F13, T3M, 25° C.; cGMP stimulation in NPR-B overexpressing Hek293 cells, relative to CNP-38 reference standard: 91%
Biopotency (%), F13, T3M, 30° C.; cGMP stimulation in NPR-B overexpressing Hek293 cells, relative to CNP-38 reference standard: 96%
Biopotency (%), F13, T3M, 40° C.; cGMP stimulation in NPR-B overexpressing Hek293 cells, relative to CNP-38 reference standard: 94%
Biopotency (%), F13, T6M 25° C.; cGMP stimulation in NPR-B overexpressing Hek293 cells, relative to CNP-38 reference standard: 106%
Biopotency (%), F13, T6M, 5° C.; cGMP stimulation in NPR-B overexpressing Hek293 cells, relative to CNP-38 reference standard: 95%
Biopotency (%), F13, T6M, 30° C.; cGMP stimulation in NPR-B overexpressing Hek293 cells, relative to CNP-38 reference standard: 89%
